± gives the standard error. For some assays here: Fewer inactive variants are shown than the library holds.
B1: glmS ribozyme (parent)
chain: AUAAAAGCGCCAGAACUACAGAAAUGUAGUUGACGAGGAGGAGGUUUAUCGAAUUUUCGGCGGAUGCCUCCAAA

Legend:
Details in all cases: with glucosamine-6-phosphate
[1] = variants of: B1; assay: kcat; higher = faster cleavage; RNA array
How it was run: (§1)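 Over ~14 h at 37 °C, tiles were imaged as glucosamine-6-phosphate (40 μM to 10 mM) in HEPES/KCl/Mg(OAc)2 buffer flowed across sequenced MiSeq chips. The chips carried barcoded ribozyme variants transcribed in situ by E. coli RNA polymerase and tracked with a hybridised Cy3 probe. After normalisation to baseline and to non-cleaving reference variants, one- or two-exponential decay fits of per-tile medians gave kobs. kcat and KM followed from weighted Michaelis–Menten fits across concentrations.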

[2] = variants of: B1; assay: self-cleavage kobs at 160 uM GlcN6P; higher = faster cleavage; RNA array
How it was run: as §1

[3] = variants of: B1; assay: KM; higher = weaker cofactor use; RNA array
How it was run: as §1

[4] = variants of: B1; assay: self-cleavage kobs at 40 uM GlcN6P; higher = faster cleavage; RNA array
How it was run: as §1

[5] = variants of: B1; assay: self-cleavage kobs at 2500 uM GlcN6P; higher = faster cleavage; RNA array
How it was run: as §1

[6] = variants of: B1; assay: self-cleavage kobs at 10000 uM GlcN6P; higher = faster cleavage; RNA array
How it was run: as §1

[7] = variants of: B1; assay: self-cleavage kobs at 640 uM GlcN6P; higher = faster cleavage; RNA array
How it was run: as §1

## G60C C68G
[1]
  kcat: 1.2e-05 ± 1.5e-06 s⁻¹

## G60C C68U
[1]
  kcat: < 1e-05 s⁻¹
[2]
  self-cleavage kobs at 160 uM GlcN6P: < 1e-05 s⁻¹

## G13U A48C
[3]
  KM: 3030 ± 610 µM

## C58G G63A
[1]
  kcat: < 1e-05 s⁻¹
[4]
  self-cleavage kobs at 40 uM GlcN6P: < 1e-05 s⁻¹

## C58G G63C
[1]
  kcat: < 1e-05 s⁻¹
[4]
  self-cleavage kobs at 40 uM GlcN6P: < 1e-05 s⁻¹
[5]
  self-cleavage kobs at 2500 uM GlcN6P: < 1e-05 s⁻¹

## A39U A52C
[3]
  KM: 2300 ± 420 µM

## C68G U69C
[1]
  kcat: 1.67e-05 ± 1.9e-06 s⁻¹
[6]
  self-cleavage kobs at 10000 uM GlcN6P: < 1e-05 s⁻¹

## G51U U65G
[3]
  KM: 63.4 ± 18 µM

## U65G C70U
[1]
  kcat: 0.00416 ± 0.00036 s⁻¹
[3]
  KM: 2980 ± 340 µM
[4]
  self-cleavage kobs at 40 uM GlcN6P: 5.75e-05 ± 5e-06 s⁻¹
[2]
  self-cleavage kobs at 160 uM GlcN6P: 0.000203 ± 1.7e-05 s⁻¹
[7]
  self-cleavage kobs at 640 uM GlcN6P: 0.000728 ± 6e-05 s⁻¹
[5]
  self-cleavage kobs at 2500 uM GlcN6P: 0.00238 ± 0.00036 s⁻¹
[6]
  self-cleavage kobs at 10000 uM GlcN6P: 0.00315 ± 0.00024 s⁻¹

## U65G C70G
[1]
  kcat: 0.000265 ± 5.4e-05 s⁻¹
[3]
  KM: 1470 ± 600 µM
[2]
  self-cleavage kobs at 160 uM GlcN6P: 4.76e-05 ± 7.4e-06 s⁻¹
[7]
  self-cleavage kobs at 640 uM GlcN6P: 7.04e-05 ± 6.8e-06 s⁻¹
[5]
  self-cleavage kobs at 2500 uM GlcN6P: 0.000176 ± 1.3e-05 s⁻¹
[6]
  self-cleavage kobs at 10000 uM GlcN6P: 0.000228 ± 2.3e-05 s⁻¹

## A33G G38U
[3]
  KM: 47.2 ± 22 µM

## G59U C71A
[1]
  kcat: 1.28e-05 ± 7.6e-07 s⁻¹

## G59U C71U
[1]
  kcat: 5.45e-05 ± 7.2e-06 s⁻¹
[5]
  self-cleavage kobs at 2500 uM GlcN6P: 2.79e-05 ± 1.3e-05 s⁻¹
[6]
  self-cleavage kobs at 10000 uM GlcN6P: 4.88e-05 ± 8.4e-06 s⁻¹

## C58A C70G
[1]
  kcat: 5.06e-05 ± 4.7e-06 s⁻¹
[3]
  KM: 91.6 ± 44 µM
[2]
  self-cleavage kobs at 160 uM GlcN6P: 3.59e-05 ± 1.2e-05 s⁻¹
[7]
  self-cleavage kobs at 640 uM GlcN6P: 3.65e-05 ± 1.3e-05 s⁻¹
[5]
  self-cleavage kobs at 2500 uM GlcN6P: 5.19e-05 ± 1.1e-05 s⁻¹

## G66C C68U C71G
[1]
  kcat: < 1e-05 s⁻¹
[2]
  self-cleavage kobs at 160 uM GlcN6P: < 1e-05 s⁻¹

## G62A C68U
[1]
  kcat: < 1e-05 s⁻¹
[6]
  self-cleavage kobs at 10000 uM GlcN6P: < 1e-05 s⁻¹

## C67G C71A
[1]
  kcat: < 1e-05 s⁻¹

## A64C C68U
[1]
  kcat: < 1e-05 s⁻¹
[4]
  self-cleavage kobs at 40 uM GlcN6P: < 1e-05 s⁻¹
[2]
  self-cleavage kobs at 160 uM GlcN6P: < 1e-05 s⁻¹
[6]
  self-cleavage kobs at 10000 uM GlcN6P: < 1e-05 s⁻¹

## C58U C71G
[1]
  kcat: < 1e-05 s⁻¹

## C58U C71A
[1]
  kcat: 7.75e-05 ± 1.6e-05 s⁻¹
[6]
  self-cleavage kobs at 10000 uM GlcN6P: 2.61e-05 ± 1.2e-05 s⁻¹

## C58G G66C
[1]
  kcat: 2.6e-05 ± 1.4e-06 s⁻¹
[3]
  KM: 2200 ± 540 µM
[7]
  self-cleavage kobs at 640 uM GlcN6P: < 1e-05 s⁻¹

## C58G G66A
[1]
  kcat: 5.59e-05 ± 5.7e-06 s⁻¹
[5]
  self-cleavage kobs at 2500 uM GlcN6P: 5.32e-05 ± 1.5e-05 s⁻¹
[6]
  self-cleavage kobs at 10000 uM GlcN6P: 5.1e-05 ± 7.9e-06 s⁻¹

## U56C G62A
[3]
  KM: 135 ± 63 µM

## G66U C67U
[1]
  kcat: 0.000913 ± 3.1e-05 s⁻¹
[3]
  KM: 1130 ± 66 µM
[4]
  self-cleavage kobs at 40 uM GlcN6P: 3.44e-05 ± 7.1e-06 s⁻¹
[2]
  self-cleavage kobs at 160 uM GlcN6P: 0.00011 ± 1.3e-05 s⁻¹
[7]
  self-cleavage kobs at 640 uM GlcN6P: 0.000333 ± 4.2e-05 s⁻¹
[5]
  self-cleavage kobs at 2500 uM GlcN6P: 0.000607 ± 8.4e-05 s⁻¹
[6]
  self-cleavage kobs at 10000 uM GlcN6P: 0.000831 ± 7.9e-05 s⁻¹

## C61G C68U
[1]
  kcat: < 1e-05 s⁻¹

## G59A U69G
[1]
  kcat: 1.93e-05 ± 4.9e-06 s⁻¹

## C58U C67A
[1]
  kcat: 3.03e-05 ± 4.9e-06 s⁻¹
[4]
  self-cleavage kobs at 40 uM GlcN6P: < 1e-05 s⁻¹
[6]
  self-cleavage kobs at 10000 uM GlcN6P: 3.07e-05 ± 7.8e-06 s⁻¹

## A6C C8U A15G
[4]
  self-cleavage kobs at 40 uM GlcN6P: < 1e-05 s⁻¹
[6]
  self-cleavage kobs at 10000 uM GlcN6P: < 1e-05 s⁻¹

## A6C A14C A36C G37C G40U G66C C67G
[4]
  self-cleavage kobs at 40 uM GlcN6P: < 1e-05 s⁻¹
[7]
  self-cleavage kobs at 640 uM GlcN6P: < 1e-05 s⁻¹

## A12U G66A
[3]
  KM: 278 ± 130 µM
[4]
  self-cleavage kobs at 40 uM GlcN6P: 0.0012 ± 0.00016 s⁻¹
[2]
  self-cleavage kobs at 160 uM GlcN6P: 0.00266 ± 0.0007 s⁻¹
[7]
  self-cleavage kobs at 640 uM GlcN6P: 0.00776 ± 0.002 s⁻¹
[5]
  self-cleavage kobs at 2500 uM GlcN6P: 0.00745 ± 0.0017 s⁻¹
[6]
  self-cleavage kobs at 10000 uM GlcN6P: 0.0359 ± 0.012 s⁻¹

## C58G C67A
[1]
  kcat: 4.68e-05 ± 7.6e-06 s⁻¹
[7]
  self-cleavage kobs at 640 uM GlcN6P: 6.09e-05 ± 1.3e-05 s⁻¹
[5]
  self-cleavage kobs at 2500 uM GlcN6P: 4.7e-05 ± 1.4e-05 s⁻¹
[6]
  self-cleavage kobs at 10000 uM GlcN6P: 3.78e-05 ± 1e-05 s⁻¹

## G37C G40U
[3]
  KM: 5820 ± 2300 µM

## G40A G59A
[3]
  KM: 1080 ± 65 µM

## A6C C10G G41A U49G G60A
[4]
  self-cleavage kobs at 40 uM GlcN6P: < 1e-05 s⁻¹

## C70A C71A
[1]
  kcat: 5.3e-05 ± 3.2e-06 s⁻¹
[3]
  KM: 181 ± 74 µM
[7]
  self-cleavage kobs at 640 uM GlcN6P: 4.65e-05 ± 9.4e-06 s⁻¹
[5]
  self-cleavage kobs at 2500 uM GlcN6P: 4.82e-05 ± 7.4e-06 s⁻¹
[6]
  self-cleavage kobs at 10000 uM GlcN6P: 5.11e-05 ± 9.4e-06 s⁻¹

## A1C C11U A64G
[4]
  self-cleavage kobs at 40 uM GlcN6P: 8.55e-05 ± 2.5e-05 s⁻¹
[6]
  self-cleavage kobs at 10000 uM GlcN6P: 0.00142 ± 0.00035 s⁻¹

## G63C C70A
[1]
  kcat: 1.89e-05 ± 5.1e-06 s⁻¹

## G63C C70U
[1]
  kcat: < 1e-05 s⁻¹
[4]
  self-cleavage kobs at 40 uM GlcN6P: < 1e-05 s⁻¹
[5]
  self-cleavage kobs at 2500 uM GlcN6P: < 1e-05 s⁻¹

## G60A G66C
[1]
  kcat: < 1e-05 s⁻¹
[7]
  self-cleavage kobs at 640 uM GlcN6P: < 1e-05 s⁻¹
[5]
  self-cleavage kobs at 2500 uM GlcN6P: < 1e-05 s⁻¹
[6]
  self-cleavage kobs at 10000 uM GlcN6P: < 1e-05 s⁻¹

## U65G C67U C68U
[1]
  kcat: 9.98e-05 ± 3.8e-05 s⁻¹
[5]
  self-cleavage kobs at 2500 uM GlcN6P: 5.84e-05 ± 1.3e-05 s⁻¹
[6]
  self-cleavage kobs at 10000 uM GlcN6P: 6.91e-05 ± 2.9e-05 s⁻¹

## A6C A52U C70U
[4]
  self-cleavage kobs at 40 uM GlcN6P: < 1e-05 s⁻¹
[7]
  self-cleavage kobs at 640 uM GlcN6P: < 1e-05 s⁻¹

## A6C A36G
[4]
  self-cleavage kobs at 40 uM GlcN6P: < 1e-05 s⁻¹
[2]
  self-cleavage kobs at 160 uM GlcN6P: < 1e-05 s⁻¹
[7]
  self-cleavage kobs at 640 uM GlcN6P: < 1e-05 s⁻¹
[5]
  self-cleavage kobs at 2500 uM GlcN6P: < 1e-05 s⁻¹
[6]
  self-cleavage kobs at 10000 uM GlcN6P: < 1e-05 s⁻¹

## A6C A36U
[4]
  self-cleavage kobs at 40 uM GlcN6P: < 1e-05 s⁻¹
[5]
  self-cleavage kobs at 2500 uM GlcN6P: < 1e-05 s⁻¹
[6]
  self-cleavage kobs at 10000 uM GlcN6P: < 1e-05 s⁻¹

## C58A C61G
[1]
  kcat: 1.62e-05 ± 5.8e-06 s⁻¹

## C58A C61U
[1]
  kcat: < 1e-05 s⁻¹

## G66U C70G
[1]
  kcat: 0.000127 ± 1.1e-05 s⁻¹
[3]
  KM: 550 ± 180 µM
[2]
  self-cleavage kobs at 160 uM GlcN6P: 3.86e-05 ± 1.7e-05 s⁻¹
[7]
  self-cleavage kobs at 640 uM GlcN6P: 5.98e-05 ± 1.4e-05 s⁻¹
[5]
  self-cleavage kobs at 2500 uM GlcN6P: 0.000112 ± 1.7e-05 s⁻¹
[6]
  self-cleavage kobs at 10000 uM GlcN6P: 0.000117 ± 1.9e-05 s⁻¹

## C67U C68G
[1]
  kcat: 2.52e-05 ± 6.7e-06 s⁻¹
[7]
  self-cleavage kobs at 640 uM GlcN6P: 3.49e-05 ± 1.2e-05 s⁻¹
[5]
  self-cleavage kobs at 2500 uM GlcN6P: 2.57e-05 ± 1.2e-05 s⁻¹

## C67U C68A
[1]
  kcat: 4.58e-05 ± 9.2e-06 s⁻¹
[7]
  self-cleavage kobs at 640 uM GlcN6P: 4.09e-05 ± 9.8e-06 s⁻¹
[5]
  self-cleavage kobs at 2500 uM GlcN6P: 5.66e-05 ± 7.5e-06 s⁻¹
[6]
  self-cleavage kobs at 10000 uM GlcN6P: 2.96e-05 ± 8.7e-06 s⁻¹

## C67A C70G
[1]
  kcat: 3.41e-05 ± 3.9e-06 s⁻¹
[7]
  self-cleavage kobs at 640 uM GlcN6P: 4.26e-05 ± 9.9e-06 s⁻¹
[5]
  self-cleavage kobs at 2500 uM GlcN6P: 2.92e-05 ± 7.8e-06 s⁻¹
[6]
  self-cleavage kobs at 10000 uM GlcN6P: 3.34e-05 ± 5.8e-06 s⁻¹

## A6C A12G U69G
[4]
  self-cleavage kobs at 40 uM GlcN6P: < 1e-05 s⁻¹
[2]
  self-cleavage kobs at 160 uM GlcN6P: < 1e-05 s⁻¹
[6]
  self-cleavage kobs at 10000 uM GlcN6P: < 1e-05 s⁻¹

From the supplement of paper PMC7125110
